We go through 3 molecules from publication PMC9492657, “Metabolic pathway assembly using docking domains from type I cis-AT polyketide synthases” (Nature Communications, 2022).

The target of test [1] is D3 NDD-His-tag (N-terminal docking domain of DEBS2, 6-deoxyerythronolide B synthase) (UniProt Q03132). As to the kind of experiment: BLI; GatorPrime; NDD-His-tag (100 ug/mL in PBS) immobilised on a Ni-NTA biosensor; CDD in solution at variable concentrations in 1x kinetic buffer (PBS pH 7.4, 0.1% BSA, 0.05% Tween 20); 1:1 global model; three repeats.
For test [2], the target named is D5 NDD-His-tag, biotinylated (N-terminal docking domain of DEBS3, 6-deoxyerythronolide B synthase) (UniProt Q03133). As to the kind of experiment: BLI; Octet RED96E; biotinylated D5 NDD (100 ug/mL in PBS) immobilised on a streptavidin (SA) biosensor; CDD in solution at variable concentrations in 1x kinetic buffer (PBS pH 7.4, 0.1% BSA, 0.05% Tween 20); 1:1 global model; three repeats.

Test [3] addresses T1, R5 NDD-His-tag (N-terminal docking domain of RapB, rapamycin polyketide synthase) (Streptomyces rapamycinicus).
T1 chain: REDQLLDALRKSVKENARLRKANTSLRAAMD
As to the kind of experiment: BLI; GatorPrime; NDD-His-tag (100 ug/mL in PBS) immobilised on a Ni-NTA biosensor; CDD in solution at variable concentrations in 1x kinetic buffer (PBS pH 7.4, 0.1% BSA, 0.05% Tween 20); 1:1 global model; three repeats. The following applies: both partners purified.

For “Flag-tag-D2 CDD (C-terminal docking domain of DEBS1, 6-deoxyerythronolide B synthase) (from UniProt Q03131 1-3491) (domain or fragment)”, the Kd in test [1] came out at 14600 nM. “Flag-tag-D4 CDD (C-terminal docking domain of DEBS2, 6-deoxyerythronolide B synthase) (from UniProt Q03132 1-3567) (domain or fragment)” yielded a Kd in test [2] of 280 nM.

B1: Flag-tag-R4 CDD (C-terminal docking domain of RapA, rapamycin polyketide synthase) (domain or fragment)
chain: FAPAEPEPRLHEQELRRALAGISIDKFREAGVLDTLLRLAAMEGLAVPKPDSESDDEAFVDEMDADALIKHVLEEER
For B1, the dissociation constant Kd in test [3] was determined as 340 ± 30 nM.
